Source: the supplement of paper PMC10724198
± gives the standard deviation of the averaged measurements.

Tested on: Saccharomyces cerevisiae
Assay: protein stability index of tFT-peptide fusion (C-terminal peptide) (PSI (0-1 scale)); higher = more stable (slower turnover)
Details: temperature: 30 C
Description: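 MPS profiling in S. cerevisiae of the yeast C-terminome library: the last 12 aa of each annotated ORF are fused to the C-terminus of a sfGFP-mCherry timer, after a GGGS linker. Cells are FACS-sorted into 8 mCherry/sfGFP bins and deep-sequenced. PSI runs from 0 (unstable) to 1 (stable); wild type and das1Δ backgrounds, two technical replicates each.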

[1] = genetic background: das1 deletion

Row | Sequence | protein stability index [1] | protein stability index (genetic background: wild type)
1 | LSEEDLLDDESS [YPF1 C-terminal 12 aa] | 0.669 ± 0.042 | 0.698 ± 0.0078
2 | LRVEWSKPKVKE [TIF35 C-terminal 12 aa] | 0.699 ± 0.015 | 0.711 ± 0.044
3 | CGCQLAVAMTTC [YFL015W-A C-terminal 12 aa] | 0.553 ± 0.039 | 0.513 ± 0.013
4 | PENGSLFEFDDN [SNU66 C-terminal 12 aa] | 0.6962 ± 0.005 | 0.6836 ± 0.0039
5 | KGRYVNSSKRRS [NOB1 C-terminal 12 aa] | 0.6955 ± 0.00021 | 0.6781 ± 0.004
6 | SLGSVFTILTDS [YGR228W C-terminal 12 aa] | 0.72 ± 0.0074 | 0.7206 ± 0.0043
7 | IRLDGENNSCSC [YPT7 C-terminal 12 aa] | 0.692 ± 0.017 | 0.697 ± 0.012
8 | KFEKKLYNFLGF [GEP4 C-terminal 12 aa] | 0.701 ± 0.028 | 0.717 ± 0.017
9 | STQHKSTTSFTQ [TGL4 C-terminal 12 aa] | 0.716 ± 0.035 | 0.655 ± 0.022
10 | TGGCSSSKFSLS [SKN1 C-terminal 12 aa] | 0.692 ± 0.021 | 0.68965 ± 0.00013
11 | LLAKKKLKPNLL [YGR293C C-terminal 12 aa] | 0.714 ± 0.028 | 0.7 ± 0.04
12 | ILKELSNLETLY [RPB4 C-terminal 12 aa] | 0.7182 ± 0.007 | 0.737 ± 0.051
13 | KLKRTITLPQLD [CIK1 C-terminal 12 aa] | 0.691 ± 0.022 | 0.761 ± 0.074
14 | EEGEVVEEEAEK [HSP78 C-terminal 12 aa] | 0.678 ± 0.022 | 0.6852 ± 0.0044
15 | SHPIDVNLQFIM [MCA1 C-terminal 12 aa] | 0.735 ± 0.013 | 0.689 ± 0.039
16 | LQPDVPPSSGRS [KEX2 C-terminal 12 aa] | 0.695 ± 0.033 | 0.703 ± 0.011
17 | DSHEDMKRRRLE [ROX3 C-terminal 12 aa] | 0.6865 ± 0.0045 | 0.695 ± 0.0078
18 | GLQKKNIKIHGF [SUI1 C-terminal 12 aa] | 0.699 ± 0.024 | 0.684 ± 0.074
19 | RLKPRQIVPKRS [SLI15 C-terminal 12 aa] | 0.7194 ± 0.0028 | 0.724 ± 0.054
20 | AADRDNKKDEST [XRN1 C-terminal 12 aa] | 0.6981 ± 0.0034 | 0.668 ± 0.057
21 | SYFNTIMHNCKP [SET4 C-terminal 12 aa] | 0.72482 ± 0.00043 | 0.715 ± 0.0071

Row | Sequence | protein stability index [1] | protein stability index (genetic background: wild type)
22 | HEKRTEEVARYA [YGR026W C-terminal 12 aa] | 0.7173 ± 0.0035 | 0.6604 ± 0.0066
23 | VLSNNVPYTQPR [RCH1 C-terminal 12 aa] | 0.703 ± 0.029 | 0.745 ± 0.054
24 | HWLQLKPGQPMY [MF(ALPHA)1 C-terminal 12 aa] | 0.7177 ± 0.0044 | 0.6822 ± 0.0032
25 | QKARDFSRSVVH [ARO2 C-terminal 12 aa] | 0.696 ± 0.00098 | 0.698 ± 0.021
26 | KNRRRNTKKIAF [RLP24 C-terminal 12 aa] | 0.705 ± 0.03 | 0.6678 ± 0.0055
27 | SSTTEETILVRK [RKM1 C-terminal 12 aa] | 0.689 ± 0.023 | 0.7025 ± 0.0051
28 | WYEDEDSGDDDM [DML1 C-terminal 12 aa] | 0.698 ± 0.012 | 0.674 ± 0.014
29 | LQPWEGRLYLLK [IMA5 C-terminal 12 aa] | 0.698 ± 0.048 | 0.693 ± 0.063
30 | NGMWQKPEPGVS [YIL067C C-terminal 12 aa] | 0.691 ± 0.012 | 0.706 ± 0.028
31 | QPSSASCLFILI [AHT1 C-terminal 12 aa] | 0.716 ± 0.023 | 0.696 ± 0.055
32 | PSVSRKTPDYFL [PPH21 C-terminal 12 aa] | 0.701 ± 0.053 | 0.7 ± 0.032
33 | NILFVMKEGRIY [YJL213W C-terminal 12 aa] | 0.681 ± 0.016 | 0.711 ± 0.056
34 | FLFHCVHLLLSG [YDR535C C-terminal 12 aa] | 0.511 ± 0.011 | 0.4909 ± 0.003
35 | QGRQGFNGGSRW [YNL208W C-terminal 12 aa] | 0.706 ± 0.025 | 0.681 ± 0.028
36 | WDFKKQGFASRD [PDA1 C-terminal 12 aa] | 0.696 ± 0.01 | 0.6926 ± 0.003
37 | DATRREVMTERK [LSM2 C-terminal 12 aa] | 0.672 ± 0.014 | 0.688 ± 0.059
38 | VMSLYNLACKYI [SAM37 C-terminal 12 aa] | 0.797 ± 0.013 | 0.577 ± 0.056
39 | NELSLRPATERI [YBL100W-A C-terminal 12 aa] | 0.6853 ± 0.0012 | 0.711 ± 0.015
40 | VGRHSSRLMCPG [YBR126W-B C-terminal 12 aa] | 0.6932 ± 0.0053 | 0.689 ± 0.022
41 | YKELVKNIESKL [CIT2 C-terminal 12 aa] | 0.752 ± 0.024 | 0.837 ± 0.015
42 | VFNDIFRLNYSA [NTF2 C-terminal 12 aa] | 0.7108 ± 0.0032 | 0.504 ± 0.0084

Row | Sequence | protein stability index [1] | protein stability index (genetic background: wild type)
43 | HQKARSSYCCIQ [XDJ1 C-terminal 12 aa] | 0.759 ± 0.02 | 0.706 ± 0.0085
44 | NTESSDKGAKIQ [SIN3 C-terminal 12 aa] | 0.701 ± 0.035 | 0.664 ± 0.012
45 | DRKQSQATNATN [ARP7 C-terminal 12 aa] | 0.687 ± 0.016 | 0.671 ± 0.0046
46 | QLLNDSPLEDKF [FBP26 C-terminal 12 aa] | 0.711 ± 0.026 | 0.7 ± 0.026
47 | TKGEVATKPASY [MGA1 C-terminal 12 aa] | 0.702 ± 0.014 | 0.703 ± 0.018
48 | GIRRIVHEPLGI [MTE1 C-terminal 12 aa] | 0.733 ± 0.016 | 0.729 ± 0.045
49 | PINDRKYPNQCH [SPR1 C-terminal 12 aa] | 0.715 ± 0.028 | 0.6948 ± 0.0011
50 | PSPYYVSEVPVS [Q0010 C-terminal 12 aa] | 0.6371 ± 0.0047 | 0.6238 ± 0.0025
51 | PRGQDTEDHILE [PIF1 C-terminal 12 aa] | 0.725 ± 0.02 | 0.692 ± 0.0098
52 | GQGTTLGGPFFP [ALB1 C-terminal 12 aa] | 0.724 ± 0.019 | 0.7215 ± 0.0052
53 | QEQQNLRQKQPN [YBL029C-A C-terminal 12 aa] | 0.704 ± 0.01 | 0.7093 ± 0.0059
54 | TDFENPNFRYTL [DAL5 C-terminal 12 aa] | 0.756 ± 0.039 | 0.794 ± 0.12
55 | EMTHSLFKKYGI [CRC1 C-terminal 12 aa] | 0.705 ± 0.017 | 0.722 ± 0.047
56 | LPLKLTRKVHDR [RIF2 C-terminal 12 aa] | 0.705 ± 0.05 | 0.713 ± 0.012
57 | EELEAEQIDVFS [PRP8 C-terminal 12 aa] | 0.689 ± 0.023 | 0.684 ± 0.02
58 | IELWETFYQTNL [VPS5 C-terminal 12 aa] | 0.745 ± 0.011 | 0.7177 ± 0.0056
59 | ASNGVRLSEIGW [SNZ1 C-terminal 12 aa] | 0.699 ± 0.011 | 0.694 ± 0.027
60 | RSNAERKRRSPL [PBP2 C-terminal 12 aa] | 0.7121 ± 0.0039 | 0.68 ± 0.021
61 | GRYAQIHEKHIE [ASN1 C-terminal 12 aa] | 0.7022 ± 0.0044 | 0.691 ± 0.089
62 | CAAVEKGPILDA [THI74 C-terminal 12 aa] | 0.691 ± 0.019 | 0.682 ± 0.021
63 | KKNKSAIDGIFG [RMP1 C-terminal 12 aa] | 0.7173 ± 0.0015 | 0.694 ± 0.014

Row | Sequence | protein stability index [1] | protein stability index (genetic background: wild type)
64 | SWISNNTNVPKK [ARF3 C-terminal 12 aa] | 0.6958 ± 0.0013 | 0.678 ± 0.011
65 | YKQREYYTGVAW [ERG28 C-terminal 12 aa] | 0.70264 ± 0.0005 | 0.694 ± 0.02
66 | GFASLIKDFKKK [NET1 C-terminal 12 aa] | 0.672 ± 0.018 | 0.685 ± 0.043
67 | ALQKQIKNALPC [PTP2 C-terminal 12 aa] | 0.694 ± 0.024 | 0.69 ± 0.029
68 | EIRKRRASSLKA [RPS6A C-terminal 12 aa] | 0.649 ± 0.021 | 0.646 ± 0.0092
69 | LLGFTTGKEVHL [SMF2 C-terminal 12 aa] | 0.6939 ± 0.0046 | 0.701 ± 0.014
70 | DIIYFRAGAGKN [OLA1 C-terminal 12 aa] | 0.691 ± 0.017 | 0.6666 ± 0.0055
71 | KMGQSFNAAGKF [TIM10 C-terminal 12 aa] | 0.692 ± 0.033 | 0.683 ± 0.0072
72 | VGKKLETFKKTN [WBP1 C-terminal 12 aa] | 0.717 ± 0.0088 | 0.48 ± 0.019
73 | EEPQLDLLDDVL [MTW1 C-terminal 12 aa] | 0.706 ± 0.03 | 0.709 ± 0.084
74 | YKKAATLISNIL [DNM1 C-terminal 12 aa] | 0.71 ± 0.017 | 0.72 ± 0.074
75 | YLAFRLREFNKL [RSC1 C-terminal 12 aa] | 0.787 ± 0.05 | 0.726 ± 0.049
76 | VDMKWGSFPIFQ [YPR1 C-terminal 12 aa] | 0.7256 ± 0.0028 | 0.7 ± 0.027
77 | GIVRHLIDSVKL [ACS1 C-terminal 12 aa] | 0.695 ± 0.012 | 0.6884 ± 0.0041
78 | KLTIRIKQKTHL [YOR316C-A C-terminal 12 aa] | 0.702 ± 0.012 | 0.6824 ± 0.0065
79 | KENLANNEILDN [YKL063C C-terminal 12 aa] | 0.683 ± 0.018 | 0.67 ± 0.026
80 | TANKVELMANIV [MAK31 C-terminal 12 aa] | 0.6683 ± 0.0035 | 0.686 ± 0.041
81 | TDDKEKLLKTLK [ACC1 C-terminal 12 aa] | 0.698 ± 0.016 | 0.734 ± 0.023
82 | ELKAHNINVVDK [PNC1 C-terminal 12 aa] | 0.662 ± 0.037 | 0.675 ± 0.044
